These results are taken from publication PMC4376777 (PLoS Pathogens, 2015).

This experiment deals with T1, GST–PPM1A (human, UniProt P35813-1 1-382).
T1 construct: also called GST–PPM1A-WT; purified PPM1A
T1 sequence (looked up): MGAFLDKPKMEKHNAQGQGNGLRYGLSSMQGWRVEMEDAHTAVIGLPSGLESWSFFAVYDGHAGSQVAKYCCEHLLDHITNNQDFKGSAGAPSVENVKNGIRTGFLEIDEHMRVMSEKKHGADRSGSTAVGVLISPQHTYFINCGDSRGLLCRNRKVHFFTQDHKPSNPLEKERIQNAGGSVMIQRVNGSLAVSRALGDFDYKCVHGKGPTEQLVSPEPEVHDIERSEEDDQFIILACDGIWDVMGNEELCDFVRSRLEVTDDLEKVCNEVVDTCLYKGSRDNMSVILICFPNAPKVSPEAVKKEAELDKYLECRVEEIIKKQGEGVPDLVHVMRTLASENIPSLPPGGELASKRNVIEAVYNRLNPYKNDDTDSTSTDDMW
As to the kind of experiment: pull-down; 1 μg of each purified protein incubated with glutathione–Sepharose beads at 4°C overnight; washed with 50 mM Tris-HCl pH 7.5, 200 mM NaCl, 10% glycerol, 0.1% Triton X-100; immunoblot. Conditions: both partners purified. A general note: A western blot detects proteins with antibodies after separation by electrophoresis.

B1: His–STING (amino acids 153–379) (domain or fragment, human, UniProt Q86WV6 153-379, looked up)
chain: FNVAHGLAWSYYIGYLRLILPELQARIRTYNQHYNNLLRGAVSQRLYILLPLDCGVPDNLSMADPNIRFLDKLPQQTGDHAGIKDRVYSNSIYELLENGQRAGTCVLEYATPLQTLFAMSQYSQAGFSREDRLEQAKLFCRTLEDILADAPESQNNCRLIAYQEPADDSSFSLSQEVLRHLRQEEKEEVTVGSLKTSAVPSTSTMSQEPELLISGMEKPLPLRTDFS
Take B1: the binding result is reported as “binds”.
